# Target: KRAS^G12D mutant
# Assay: BLI binding kinetics assay, KRAS G12D mutant
# Conditions: protein-protein; BLI (Fig. S5)
molecule,measurement,value
"GRB10: potential KRAS-interacting protein, UniProt Q13322 (protein, UniProt Q13322 1-594, looked up) Growth factor receptor-bound …: MALAGCPDSFLHHPYYQDKVEQTPRSQQDPAGPGLPAQSDRLANHQEDDVDLEALVNDMNASLESLYSACSMQSDTVPLLQNGQHARSQPRASGPPRSIQPQVSPRQRVQRSQPVHILAVRRLQEEDQQFRTSSLPAIPNPFPELCGPGSPPVLTPGSLPPSQAAAKQDVKVFSEDGTSKVVEILADMTARDLCQLLVYKSHCVDDNSWTLVEHHPHLGLERCLEDHELVVQVESTMASESKFLFRKNYAKYEFFKNPMNFFPEQMVTWCQQSNGSQTQLLQNFLNSSSCPEIQGFLHVKELGKKSWKKLYVCLRRSGLYCSTKGTSKEPRHLQLLADLEDSNIFSLIAGRKQYNAPTDHGLCIKPNKVRNETKELRLLCAEDEQTRTCWMTAFRLLKYGMLLYQNYRIPQQRKALLSPFSTPVRSVSENSLVAMDFSGQTGRVIENPAEAQSAALEEGHAWRKRSTRMNILGSQSPLHPSTLSTVIHRTQHWFHGRISREESHRIIKQQGLVDGLFLLRDSQSNPKAFVLTLCHHQKIKNFQILPCEDDGQTFFSLDDGNTKFSDLIQLVDFYQLNKGVLPCKLKHHCIRVAL",Kd,51 µM
